The record followed here is patent US20060134741.

Data set [1] relates to sentrin-modified proteins (Sentrin-1 conjugates).
For data set [2], the target named is T1, sentrinized RanGAP (construct not stated), P46060.
T1 chain: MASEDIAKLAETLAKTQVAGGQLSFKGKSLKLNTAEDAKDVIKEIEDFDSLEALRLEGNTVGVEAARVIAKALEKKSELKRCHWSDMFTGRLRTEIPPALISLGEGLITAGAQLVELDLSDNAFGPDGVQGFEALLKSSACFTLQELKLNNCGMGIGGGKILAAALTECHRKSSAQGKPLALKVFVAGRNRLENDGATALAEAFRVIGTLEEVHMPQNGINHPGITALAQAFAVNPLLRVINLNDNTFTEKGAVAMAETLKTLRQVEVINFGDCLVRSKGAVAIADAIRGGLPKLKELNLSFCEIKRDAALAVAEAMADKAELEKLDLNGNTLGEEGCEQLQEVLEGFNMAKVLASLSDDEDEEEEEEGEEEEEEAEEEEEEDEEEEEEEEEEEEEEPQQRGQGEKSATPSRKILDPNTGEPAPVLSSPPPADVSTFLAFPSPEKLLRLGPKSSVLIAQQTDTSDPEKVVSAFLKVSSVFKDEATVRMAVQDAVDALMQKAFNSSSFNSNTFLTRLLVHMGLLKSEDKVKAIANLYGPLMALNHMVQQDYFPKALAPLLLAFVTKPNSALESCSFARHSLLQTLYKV

In data set [3] the target is T2, Sentrinized PML (construct not stated), P29590.
T2 chain: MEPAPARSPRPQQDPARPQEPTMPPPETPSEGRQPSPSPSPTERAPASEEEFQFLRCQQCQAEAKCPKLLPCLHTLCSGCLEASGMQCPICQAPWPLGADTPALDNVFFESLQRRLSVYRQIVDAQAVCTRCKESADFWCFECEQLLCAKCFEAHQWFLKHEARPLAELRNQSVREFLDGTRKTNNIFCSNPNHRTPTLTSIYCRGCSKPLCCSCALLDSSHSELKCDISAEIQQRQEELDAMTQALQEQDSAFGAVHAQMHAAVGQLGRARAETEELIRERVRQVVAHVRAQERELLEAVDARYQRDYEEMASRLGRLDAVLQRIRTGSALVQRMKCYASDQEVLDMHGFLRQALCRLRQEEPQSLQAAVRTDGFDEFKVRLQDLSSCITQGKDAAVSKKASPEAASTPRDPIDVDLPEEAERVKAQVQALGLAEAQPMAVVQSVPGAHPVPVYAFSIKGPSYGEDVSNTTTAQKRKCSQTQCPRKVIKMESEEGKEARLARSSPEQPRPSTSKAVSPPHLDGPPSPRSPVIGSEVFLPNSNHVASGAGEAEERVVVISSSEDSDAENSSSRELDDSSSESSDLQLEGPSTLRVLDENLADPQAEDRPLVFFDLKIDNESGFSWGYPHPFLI

As to HsUlp1 (full length, 371 aa), the “protease activity against sentrin-modified proteins” value in data set [1] is given as “extensive studies indicated that HsUlp I had no activity against sentrin-modified proteins”.

B1: SENP2 (protein)
chain: MVTSACNGTRNVAPSGEVFSNSSSCELTGSGSWNNMLKLGNKSPNGISDYPKIRVTVTRDQPRRVLPSFGFTLNSEGCNRRPGGRRHSKGNPESSLMWKPQEQAVTEMISEESGKGLRRPHCTVEEGVQKEEREKYRKLLERLKESGHGNSVCPVTSNYHSSQRSQMDTLKTKGWGEEQNHGVKTTQFVPKQYRLVETRGPLCSLRSEKRCSKGKITDTEKMVGIRFENESRRGYQLEPDLSEEVSARLRLGSGSNGLLRRKVSIIETKEKNCSGKERDRRTDDLLELTEDMEKEISNALGHGPQDEILSSAFKLRITRGDIQTLKNYHWLNDEVINFYMNLLVERNKKQGYPALHVFSTFFYPKLKSGGYQAVKRWTKGVNLFEQEIILVPIHRKVHWSLVVIDLRKKCLKYLDSMGQKGHRICEILLQYLQDESKTKRNSDLNLLEWTHHSMKPHEIPQQLNGSDCGMFTCKYADYISRDKPITFTQHQMPLFRKKMVWEILHQQLL
Turning to B1, the “effect on sentrinized RanGAP” value in data set [2] is listed as “sentrinized RanGAP remained intact”. In addition, in data set [3], the “effect on sentrinized PML” value was “Sentrinized PML, a tumor suppressor that resides in the nucleus, was selectively affected by SENP2”.
